Reference: the supplement of paper PMC7877785
± gives the uncertainty stated by the source.

Test: self-splicing fitness, log relative to wild type (ln ratio); higher = more splicing; Tetrahymena group I intron in knt gene, E. coli kanamycin selection, DiMSum; sequences stand for … in CUCUCU…GGAGGGAAAAGUUAUCAGGCAUGCACCUGGUAGCUAGUCUUUAAACCAAUAGAUUGCAUCGGUUUAAAAGGCAAGACCGUCAAAUUGCGGGAAAGGGGUCAACAGCCGUUCAGUACCAAGUCUCAGGGGAAACUUUGAGAUGGCCUUGCAAAGGGUAUGGUAAUAAGCUGACGGACAUGGUCCUAACCACGCAGCCAAGUCCUAAGUCAACAGAUCUUCUGUUGAUAUGGAUGCAGUUCACAGACUAAAUGUCGGUCGGGGAAGAUGUAUUCUUCUCAUAAGAUAUAGUCGGACCUCUCCUUAAUGGGAGCUAGCGGAUGAAGUGAUGCAACACUGGAGCCGCUGGGAACUAAUUUGUAUGCGAAAGUAUAUUGAUUAGUUUUGGAGUACUCGUGGUCG
Summary of the method: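 Library with all eight P1ex-region intron nucleotides randomised, intron inside the knt kanamycin-resistance gene on pET-22b(+), in E. coli BL21(DE3). Cells grew overnight at 37°C or 30°C on LB agar with or without 25 μg/mL kanamycin (plus 100 μg/mL carbenicillin, 50 μM IPTG, 0.2% rhamnose), in six replicate transformations. Pooled colonies were amplicon-sequenced on Illumina HiSeq 2500. DiMSum fitness is the error-weighted combination of wild-type-normalised replicate fold changes, kanamycin versus none.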

Sequence	self-splicing fitness (ln) (30 °C)	self-splicing fitness (ln) (37 °C)
ACUCAGCAAUAUUACGAUUC	-1.63 ± 0.087	-0.302 ± 0.1
GCGGAGCAAUAUUACGAGGU	-4.1 ± 0.46	
AAAUAGCAAUAUUACGACUG	-0.98 ± 0.12	-0.722 ± 0.18
UACUAGCAAUAUUACGCCCU	-0.435 ± 0.14	-0.784 ± 0.15
GUAAAGCAAUAUUACGGUGA	-0.896 ± 0.084	-0.575 ± 0.1
AGAAAGCAAUAUUACGGAGU	-2.55 ± 0.11	-1.11 ± 0.11
GACGAGCAAUAUUACGAAAU	-2.5 ± 0.23	
AUAGAGCAAUAUUACGCCAU	-2.25 ± 0.18	-1.66 ± 0.27
GAUAAGCAAUAUUACGAUUU	-0.385 ± 0.083	1.36 ± 0.12
GGUUAGCAAUAUUACGGUCC	-1.77 ± 0.49	
AUGCAGCAAUAUUACGCGUC	-3.6 ± 0.2	-3.05 ± 0.16
CUAUAGCAAUAUUACGUGCA	-3.24 ± 0.18	-2.37 ± 0.19
GCGGAGCAAUAUUACGGUCA	-2.75 ± 0.17	-1.04 ± 0.13
CAGUAGCAAUAUUACGGUGU	-3.63 ± 0.3	-0.678 ± 0.15
ACGGAGCAAUAUUACGCAUA	-3.27 ± 0.21	-2.86 ± 0.22
GCCCAGCAAUAUUACGCCGA	-1.86 ± 0.13	-1.2 ± 0.12
UGUCAGCAAUAUUACGGCGU	-1.95 ± 0.15	-0.728 ± 0.13
AACAAGCAAUAUUACGAAAC	-3.9 ± 0.23	-2.33 ± 0.27
AGCUAGCAAUAUUACGAAUG	-2.09 ± 0.17	-2.27 ± 0.29
AUAUAGCAAUAUUACGAGUC	-2.97 ± 0.34	-2.63 ± 0.45
CGUAAGCAAUAUUACGUUAC	-3.56 ± 0.26	-2.03 ± 0.28
UUUCAGCAAUAUUACGUUUU	-3.86 ± 0.23	-1.13 ± 0.14
ACAUAGCAAUAUUACGACGA	-0.942 ± 0.068	-0.294 ± 0.078
AGGCAGCAAUAUUACGCUCG	-1.75 ± 0.091	-0.442 ± 0.12
CCUGAGCAAUAUUACGCAGU	-2.91 ± 0.2	-2.84 ± 0.28
GUUCAGCAAUAUUACGAUUU	-0.241 ± 0.078	0.331 ± 0.087

Sequence	self-splicing fitness (ln) (30 °C)	self-splicing fitness (ln) (37 °C)
GAGCAGCAAUAUUACGCACG	-1.11 ± 0.061	-0.692 ± 0.083
CCCCAGCAAUAUUACGCGUA	-3.87 ± 0.25	-2.46 ± 0.18
ACGUAGCAAUAUUACGCCUC	-2.48 ± 0.38	-2.16 ± 0.41
ACUCAGCAAUAUUACGUACU	-0.824 ± 0.056	-0.927 ± 0.063
UAUGAGCAAUAUUACGUUGC	-2.19 ± 0.19	-2.65 ± 0.23
GUCCAGCAAUAUUACGAGGA	-2.98 ± 0.27	-2.64 ± 0.3
CGGGAGCAAUAUUACGUUUU	-2.19 ± 0.18	-1.53 ± 0.27
GAGUAGCAAUAUUACGGGUC	-2.57 ± 0.2	-1.81 ± 0.18
CGCUAGCAAUAUUACGCGAA		-2.95 ± 0.43
AUGAAGCAAUAUUACGCCUU	-1.9 ± 0.16	-1.01 ± 0.14
ACAAAGCAAUAUUACGAACA	-2.3 ± 0.12	-0.578 ± 0.1
UUCCAGCAAUAUUACGAGGU	-1.96 ± 0.17	-1.87 ± 0.16
AUACAGCAAUAUUACGCAAA	-2.45 ± 0.21	-1.07 ± 0.18
GCUCAGCAAUAUUACGCCCA	-1.99 ± 0.25	-1.09 ± 0.23
GUGAAGCAAUAUUACGGCUA	-0.323 ± 0.1	0.322 ± 0.12
GACGAGCAAUAUUACGAGAU	-2.23 ± 0.3	
CUAUAGCAAUAUUACGGCAA	-3.31 ± 0.29	-2.63 ± 0.45
CGCCAGCAAUAUUACGGUGU	-2.27 ± 0.12	-2.84 ± 0.26
ACGAAGCAAUAUUACGUGUC	-3.76 ± 0.15	-2.7 ± 0.17
CUAUAGCAAUAUUACGAUAA	-1.1 ± 0.11	-0.839 ± 0.17
CCCGAGCAAUAUUACGCAUC	-2 ± 0.15	-1.45 ± 0.2
ACAGAGCAAUAUUACGCUCU	-3.01 ± 0.24	-2.41 ± 0.49
GUGUAGCAAUAUUACGCUCG	-1 ± 0.18	-0.53 ± 0.21
UUGAAGCAAUAUUACGACUC	-1.26 ± 0.079	-0.526 ± 0.11
UGAGAGCAAUAUUACGUAUA	-3.03 ± 0.42	-1.66 ± 0.35
CUGUAGCAAUAUUACGUUUA	-3.7 ± 0.32	-2.51 ± 0.16

Sequence	self-splicing fitness (ln) (30 °C)	self-splicing fitness (ln) (37 °C)
GGAGAGCAAUAUUACGCAUC	-3.08 ± 0.28	-2.85 ± 0.43
GGGCAGCAAUAUUACGAGGG	-3.93 ± 0.34	-2.39 ± 0.24
AAGCAGCAAUAUUACGUGGU	-4.16 ± 0.2	-1.27 ± 0.11
ACGAAGCAAUAUUACGCAGA	-1.42 ± 0.12	-1.1 ± 0.14
AUACAGCAAUAUUACGUCAG	-3.05 ± 0.13	-1.23 ± 0.13
UUGAAGCAAUAUUACGGGCG	-0.128 ± 0.061	0.407 ± 0.084
ACCUAGCAAUAUUACGCAGC	-1.43 ± 0.095	-1.46 ± 0.12
GGUCAGCAAUAUUACGGAAC	-1.04 ± 0.1	-0.383 ± 0.14
CUUAAGCAAUAUUACGAAUG	-0.541 ± 0.092	-0.0976 ± 0.12
CUAGAGCAAUAUUACGUAGC		-1.49 ± 0.27
UAUUAGCAAUAUUACGUUAG	-2.33 ± 0.18	-1.62 ± 0.17
UGGAAGCAAUAUUACGGACC	-0.695 ± 0.088	-0.372 ± 0.11
GUUUAGCAAUAUUACGGUUA	-1.68 ± 0.18	-0.49 ± 0.12
UAGUAGCAAUAUUACGUCAG		-0.99 ± 0.22
CCGGAGCAAUAUUACGUGCA	-3.1 ± 0.35	-2.06 ± 0.29
GAAUAGCAAUAUUACGCUGU	-3.12 ± 0.21	-2.1 ± 0.15
AUGGAGCAAUAUUACGCAAG	-4.55 ± 0.42	-1.09 ± 0.31
AGAUAGCAAUAUUACGUAUA	-1.91 ± 0.19	-2.27 ± 0.28
AUGGAGCAAUAUUACGUUCA	-1.16 ± 0.12	-0.311 ± 0.14
UAGAAGCAAUAUUACGCCGA	-1.47 ± 0.32	-1 ± 0.25
UAUAAGCAAUAUUACGACGU	-1.12 ± 0.11	-0.116 ± 0.11
CGUGAGCAAUAUUACGCGCA	-0.962 ± 0.38	-0.382 ± 0.27
UGCGAGCAAUAUUACGGCCA	-0.517 ± 0.13	0.5 ± 0.15
CCUGAGCAAUAUUACGCGUC	-2.89 ± 0.27	-3.02 ± 0.4
AGCCAGCAAUAUUACGACAC	-2.83 ± 0.28	-1.55 ± 0.27
